Results reported in PMC6344544, “Illuminating the catalytic core of ectoine synthase through structural and biochemical analysis” (Scientific Reports, 2019).

Experiments:
[1] = target: T1, ectoine synthase (Pl)EctC (Paenibacillus lautus, UniProt A0A1R1AV52); experiment: X-ray crystal structure ([…] Å); assay type: binding
T1 construct: full-length (130 amino acids), C-terminal Strep-tag II

[2] = target: Paenibacillus lautus ectoine synthase fused at its C-terminus to a Strep-tag II affinity peptide [(Pl)EctC-Strep-tag II] (Paenibacillus lautus Y4.12MC10); experiment: SEC-MALS; HPLC-MALS; 200 µl of purified (Pl)EctC protein (2 mg ml^-1) loaded onto a Bio SEC-5 HPLC column; measured mass 32.2 kDa against 15.87 kDa calculated for the monomer
purified protein = substrate: CC(=O)NCC[C@H](N)C(=O)O; experiment: purified protein; assay type: binding, Paenibacillus lautus; settings: Fe2+ active site in the cupin barrel; Trp-21, Arg-25, Asn-38, Thr-40, Tyr-52, Glu-57; acetamide oxygen coordinates the iron

CC1=N[C@H](C(=O)O)CCN1 [ectoine, (S)−2-methyl-1,4,5,6-tetrahydropyrimidine-4-carboxylic acid]
X-ray crystal structure (2.5 Å) [1]: The ectoine molecule is coordinated within the active site of the (Pl)EctC enzyme through five direct interactions

Paenibacillus lautus ectoine synthase fused at its C-terminus to a Strep-tag II affinity peptide [(Pl)EctC-Strep-tag II] (enzyme)
stoichiometry N [2]: 2

B1: ectoine synthase (Pl)EctC (Paenibacillus lautus) (protein)
chain: MIVKHLEEIVDTKDDIDTKTWNSRRLLLTKDGMGFSLNDTLIKAGTETLIWYKNHVEAVYCIEGEGEIEVIGGETYPISPGMMYALDGHEKHYLRARSQMRMVCVFNPPLTGAEVHDEEGTYPLLAPISD
notes: full-length (130 amino acids), C-terminal Strep-tag II
Km (purified protein): 7.8 mM
